Assay results from US20120184713A1, “Compositions and Methods for Modulation of Bone Density and Biomineralization” (priority 2011, published 2012).
Like-named read-outs stand apart in the source and are kept apart here.

Columns and labels:
FAM20C [1] = target: T1, FAM20C (Mus musculus, UniProt Q5MJS3); assay: FAM20C in vitro kinase assay with dephosphorylated alpha-Casein as substrate; type: biochemical; conditions: 5 minute assays
T1 construct: His (from vector pcDNA3.1/V5-His B) (C); made in house; host or cells: HEK293T
T1 sequence (Q5MJS3 88-579): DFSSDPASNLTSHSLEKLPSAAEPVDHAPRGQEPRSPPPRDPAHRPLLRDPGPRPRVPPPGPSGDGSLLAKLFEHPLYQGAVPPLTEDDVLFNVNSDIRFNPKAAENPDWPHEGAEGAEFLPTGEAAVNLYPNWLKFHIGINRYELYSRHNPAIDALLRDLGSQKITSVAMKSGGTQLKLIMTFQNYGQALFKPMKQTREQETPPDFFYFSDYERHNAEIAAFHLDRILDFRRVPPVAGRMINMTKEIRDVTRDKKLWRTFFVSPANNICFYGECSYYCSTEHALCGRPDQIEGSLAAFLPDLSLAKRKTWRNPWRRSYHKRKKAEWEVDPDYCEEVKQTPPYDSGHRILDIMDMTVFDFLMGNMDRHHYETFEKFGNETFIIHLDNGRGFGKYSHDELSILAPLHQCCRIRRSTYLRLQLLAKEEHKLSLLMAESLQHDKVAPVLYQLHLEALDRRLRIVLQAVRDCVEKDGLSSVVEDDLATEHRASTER
Method: For FAM20C:V5 purification, pcDNA-FAM20C:V5 was transfected to HEK293T cells, and FAM20C:V5 was purified from conditioned media using anti-V5 agarose beads (Sigma). Condition media were incubated with anti-V5 affinity gel (Sigma) overnight at 4° C. Agarose beads were collected by centrifugation, and washed 5 times with TBS. Proteins were eluted using V5 peptides in TBS (Sigma, final concentration: 100 μg/ml). For purification of OPN:FLAG, BSP:FLAG, DMP1:FLAG, DSPP:FLAG and MEPE:FLAG, condition media were incubated with anti-FLAG M2 affinity gel (Sigma) overnight at 4° C. Agarose beads were collected by centrifugation, and washed 5 times with TBS. Purified quantification was performed on gels stained by SYPRO Ruby Protein Gel Stain (Invitrogen), using BSA as a standard.
FAM20C kinase assays were performed in 10 μl reactions, with 500 μM ATP, including 3 μCi (0.05 μM) of [gamma-^32P]ATP (6000 Ci/mmol, PerkinElmer), 50 mM Tris (pH 7.0), 10 mM MnCl2, 0.1% BSA, purified FAM20C:V5 (5 ng, […]), and dephosphorylated alpha-Casein (0.1 μg, Sigma). […] Radioactivity within the gels was detected using a Molecular Dynamics Phosphor Imager. For quantitation of gamma-^32P incorporation, bands were cut out of the gels using the Phosphor Imager pictures as a reference, and then counted by liquid scintillation using a Beckman Coulter LC6500. […]

[2] = system: Golgi apparatus casein kinase (G-CK); conditions: literature value (ref. 20), cited from earlier work
FAM20C [3] = target: T1, FAM20C; assay: FAM20C kinase assay with peptide substrates (P81 phosphocellulose paper); type: biochemical; conditions: in vitro kinase reaction, FIG. 6
Method: FAM20C kinase assays were performed in 10 μl reactions, with 500 μM ATP, including 3 μCi (0.05 μM) of [gamma-^32P]ATP (6000 Ci/mmol, PerkinElmer), 50 mM Tris (pH 7.0), 10 mM MnCl2, 0.1% BSA, purified FAM20C:V5 (5 ng, […]), and dephosphorylated alpha-Casein (0.1 μg, Sigma). The kinase reaction was linear at 5 minutes, and the reaction rate was dependent on enzyme and substrate concentrations. Reactions were stopped by adding SDS sample buffer and boiling, and one half of the reaction volume was subjected to SDS-PAGE. Radioactivity within the gels was detected using a Molecular Dynamics Phosphor Imager. For quantitation of gamma-^32P incorporation, bands were cut out of the gels using the Phosphor Imager pictures as a reference, and then counted by liquid scintillation using a Beckman Coulter LC6500. Myelin Basic Protein (0.5 μg, NEB) and affinity-purified Fat2-3:FLAG (0.1 μg)^8 were used as control substrates. To determine pH-dependency, the pH in the reaction buffer was varied using Tris-HCl buffers. Synthesized peptides were designed from the sequence of human Osteopontin 115Asp to 132Leu, adding three basic amino acids (Arg-Lys-Arg) to its N-terminus to enable peptide binding to phosphocellulose paper (P81, Upstate). Peptides were purchased from Peptide2.0. Peptide1 ([…]; SEQ ID NO: 41), Peptide2 ([…]; SEQ ID NO: 42), Peptide3 ([…]; SEQ ID NO: 43), and Peptide4 ([…]; SEQ ID NO: 44).
(§1) FAM20C kinase assay with peptides substrates were performed in 10 μl reactions, with 500 μM ATP, including 3 μCi (0.05 μM) of [gamma-^32P]ATP (6000 Ci/mmol, PerkinElmer), 50 mM Tris (pH 7.0), 10 mM MnCl2, 0.1% BSA, purified FAM20C:V5 and peptides. Casein Kinase I (500 units, NEB) was used as a control kinase. mutant versions (5 ng, […]), and peptides (2.5 μg, 1 nmol as a standard condition. 250 ng, […] in FAM20C mutants). Reactions were stopped by adding 1.5 μl 0.1N—HCl, and one half of the reaction volume was pipetted on to P81 phospho-cellulose filter paper^27. The filter papers were washed with 0.5% phosphoric acid and subjected to liquid scintillation counting.

Casein Kinase I = target: T2, Casein Kinase I (Rattus norvegicus, UniProt Q06486); assay: Casein Kinase I control kinase assay with peptide substrates; type: biochemical; conditions: in vitro kinase reaction, FIG. 6
T2 construct: purchased NEB
T2 sequence (Q06486 1-317 limits assumed): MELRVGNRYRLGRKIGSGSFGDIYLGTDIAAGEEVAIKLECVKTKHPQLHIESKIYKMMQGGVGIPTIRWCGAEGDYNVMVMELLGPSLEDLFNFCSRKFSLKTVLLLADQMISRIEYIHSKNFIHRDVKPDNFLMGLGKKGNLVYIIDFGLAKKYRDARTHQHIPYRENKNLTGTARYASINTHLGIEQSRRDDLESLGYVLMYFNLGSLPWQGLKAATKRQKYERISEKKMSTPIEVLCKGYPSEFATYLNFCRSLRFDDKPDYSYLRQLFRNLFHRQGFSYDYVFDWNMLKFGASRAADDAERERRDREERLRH
Method: as §1

## Casein
FAM20C [1]; linear reaction conditions, average of several independent experiments, read-out: Michaelis constant (Km) of FAM20C for Casein
  Km: 1.5 µM
[2]; read-out: Km for α-Casein for G-CK
  Km: 12 µM

## RKRDDAHQSDEAHHSDESDEL [OPN-ASARM^2S-A, derivative in which the other two Ser residues were changed to Ala]
FAM20C [3]
  phosphorylation of peptide by FAM20C: still efficiently phosphorylated
Casein Kinase I
  phosphorylation of peptide by CKI: reduced, but similar levels of activity

## Nc1ncnc2c1ncn2[C@@H]1O[C@H](COP(=O)(O)OP(=O)(O)OP(=O)(O)O)[C@@H](O)[C@H]1O [ATP]
FAM20C [1]; FAM20C, dephosphorylated alpha casein as substrate, read-out: Km for ATP
  Km: 78 µM
[2]; read-out: Km for ATP originally measured for G-CK
  Km: 80 µM

## RKRDDSHQSDESHHSDESDEL [OPN-ASARM, amino acids 115-132 of human OPN with N-terminal Arg-Lys-Arg]
FAM20C [3]
  phosphorylation of peptide by FAM20C: is a FAM20C substrate
Casein Kinase I
  phosphorylation of peptide by CKI: phosphorylated

## RKRDDSHQADESHHADEADEL [OPN-ASARM^3S-A, peptide in which only the three G-CK consensus sites were changed to Ala]
FAM20C [3]
  phosphorylation of peptide by FAM20C: phosphorylated much less effectively
Casein Kinase I
  phosphorylation of peptide by CKI: reduced, but similar levels of activity
